Reference: patent US20090155255A1 (Biogen, published 2009)

Key:
[1] = molecular target: T1, soluble CD23 antigen (soluble and monomeric form) (UniProt P06734 150-321, limits assumed); test: isothermal titration calorimetry, average over temperatures
T1 construct: also called free CD23
T1 sequence (looked up): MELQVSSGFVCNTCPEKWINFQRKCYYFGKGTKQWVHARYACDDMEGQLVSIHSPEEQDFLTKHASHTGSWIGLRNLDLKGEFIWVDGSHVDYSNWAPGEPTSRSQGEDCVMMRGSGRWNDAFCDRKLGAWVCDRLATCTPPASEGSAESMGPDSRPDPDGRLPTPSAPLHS
Method: Isothermal titration calorimetry (ITC) accurately measures the thermodynamics of protein-protein interactions and can further provide the stoichiometry of the experimental complex. CD23, C-terminal tetravalent p5E8, p5E8 IgG and p5E8 Fab were extensively dialyzed for 12 hours against PBS. ITC experiments were performed on an iTC200 microcalorimeter (MicroCal LLC, Northampton, Mass.). After degassing, 25×1.5 μl aliquots of 100 μM CD23 were injected at 5 minute intervals into the 350-μl sample cell containing 5 μM solutions of antibody/Fab. Raw data were then integrated and fitted using a nonlinear least squares routine in ITC data analysis software ORIGIN (MicroCal LLC, Northampton, Mass.). The fitting generated values for the independent variables ΔH⁰ (binding enthalpy), N (the stoichiometry), and Kb (binding constant). For each antibody/Fab, ITC experiments were performed at 5° C., 15° C., 25° C., and 37° C. in order to determine the temperature dependence on the binding heats and to optimize the experiments to obtain better signal to noise.
The CD23 in the syringe and the antibody in the sample cell are both monomers in solution. On fitting the data, N values approximating 1, 2, and 4 would indicate binding of all available antigen binding sites for the p5E8 Fab, p5E8 IgG and the C-terminal tetravalent p5E8, respectively. […]

[2] = molecular target: T1, soluble CD23 antigen (soluble and …); test: solution-phase competition Biacore, free CD23 read on an immobilised p5E8 chip; average of three titrations
Method: In this experiment, the concentration of free CD23 (soluble and monomeric form) in solution is determined by the initial rate of binding to a CM5 Biacore chip containing immobilized p5E8 MAb. Into these CD23 solutions were titrated the p5E8 Fab prepared by papain digestion (one potential binding site), p5E8 MAb (two potential binding sites), and the C-terminal anti-CD23 tetravalent antibody (four potential binding sites). The p5E8 Fab, MAb, and tetravalent antibody are the ligands and CD23 is the analyte being tested.
P5E8 was immobilized to 20247 RUs on a CM5 sensor chip. CD23 and CD23 plus antibody were flowed over the sensor chip at a 10 μl/min for 3 minutes. Initial binding rates were obtained from a fit to the initial linear portion of the raw sensorgram data (FIG. 23A). The N (stoichiometry) values were determined by plotting the antibody concentration against the initial rate, Vᵢ, obtained at each concentration (FIG. 23B). […] Three experiments measured the initial rates of binding of free CD23 to the p5E8 sensor chip (concentrations for CD23 ranged from 0.15 to 15 nM) in the presence of constant concentrations of antibody of 1, 2.5 and 10 nM. […] The calculated stoichiometries correspond to binding of CD23 antigen to all four available antigen binding sites for the C-terminal tetravalent p5E8.

Avg. N (stoichiometry) [1]: 0.99 | N (stoichiometry, CD23 molecules bound per antibody) [2]: 1.05
B1: PRIMATIZED p5E8 Fab (Fab, V domains shown)
VH: EVQLVESGGGLAKPGGSLRLSCAASGFRFTFNNYYMDWVRQAPGQGLEWVSRISSSGDPTWYADSVKGRFTISRENAKNTLFLQMNSLRAEDTAVYYCASLTTGSDSWGQGVLVTVSS
VL: DIQMTQSPSSLSASVGDRVTITCRASQDIRYYLNWYQQKPGKAPKLLIYVASSLQSGVPSRFSGSGSGTEFTLTVSSLQPEDFATYYCLQVYSTPRTFGQGTKVEIKR
notes: domain: CH1
